Experimental data: publication PMC11379886, “Insights into phosphoethanolamine cellulose synthesis and secretion across the Gram-negative cell envelope” (Nature Communications, 2024)

B3: Escherichia coli BcsB (natural protein)
chain: TPATQPLINAEPAVAAQTEQNPQVGQVMPGVQGADAPVVAQNGPSRDVKLTFAQIAPPPGSMVLRGINPNGSIEFGMRSDEVVTKAMLNLEYTPSPSLLPVQSQLKVYLNDELMGVLPVTKEQLGKKTLAQMPINPLFISDFNRVRLEFVGHYQDVCEKPASTTLWLDVGRSSGLDLTYQTLNVKNDLSHFPVPFFDPSDNRTNTLPMVFAGAPDVGLQQASAIVASWFGSRSGWRGQNFPVLYNQLPDRNAIVFATNDKRPDFLRDHPAVKAPVIEMINHPQNPYVKLLVVFGRDDKDLLQAAKGIAQGNILFRGESVVVNEVKPLLPRKPYDAPNWVRTDRPVTFGELKTYEEQLQSSGLEPAAINVSLNLPPDLYLMRSTGIDMDINYRYTMPPVKDSSRMDISLNNQFLQSFNLSSKQEANRLLLRIPVLQGLLDGKTDVSIPALKLGATNQLRFDFEYMNPMPGGSVDNCITFQPVQNHVVIGDDSTIDFSKYYHFIPMPDLRAFANAGFPFSRMADLSQTITVMPKAPNEAQMETLLNTVGFIGAQTGFPAINLTVTDDGSTIQGKDADIMIIGGIPDKLKDDKQIDLLVQATESWVKTPMRQTPFPGIVPDESDRAAETRSTLTSSGAMAAVIGFQSPYNDQRSVIALLADSPRGYEMLNDAVNDSGKRATMFGSVAVIRESGINSLRVGDVYYVGHLPWFERVWYALANHPILLAVLAAISVILLAWVLWRLLRIISRRRLNPDNE
notes: BcsB, periplasmic inner-membrane-anchored subunit of the E. coli cellulose synthase complex; In the BcsB-BcsC fusion made from the same plasmid the BcsB part is residues 55-779; also called Ec BcsB; not shown: Strep-tag II, N-terminal, kept

Columns and labels:
Escherichia coli BcsB = target: B3; test: cryo-EM structure; purified Ec Bcs inner membrane complex in MSP2N2 nanodiscs incubated with the separately purified periplasmic domain of BcsC (TPR#1-18) at a molar ratio of 1:5 for 1 h on ice; low-resolution map; settings: both partners purified
[1] = target: the molecule itself; test: cryo-EM structure; reprocessing of the previously published cryo-EM data (EMD-23267) of the co-expressed, co-purified Ec inner membrane-associated Bcs complex, focused on BcsA-BcsG; ~5.7 Å; AlphaFold2 model docked as rigid bodies
[2] = target: the molecule itself; test: cryo-EM structure; purified Ec Bcs inner membrane complex in MSP2N2 nanodiscs incubated with the separately purified periplasmic domain of BcsC (TPR#1-18) at a molar ratio of 1:5 for 1 h on ice; low-resolution map
[3] = target: the molecule itself; test: cryo-EM structure; BcsC incubated with purified BcsZ at a molar 1:1.5; single particle analysis, about 2.7 Å for BcsZ
[4] = target: T1, Escherichia coli BcsB (residues 55–779), as it stands in the BcsB-BcsC fusion (Escherichia coli, UniProt P37652 55-779); test: cryo-EM structure; BcsC TPR#1-4 fused to the N-terminus of BcsB, co-expressed with all other Bcs components, purified in detergent, about 2.2 mg/mL; focused refinement of a tetrameric BcsB assembly, about 3.2 Å; settings: both partners purified
T1 construct: E. coli BcsB, residues 55-779; Joined on one chain with Strep-tag II, BcsC 21-179 and a GSGSGS linker at its N-terminus (molecule m11); written apart for the BcsB-BcsC pair of the structure; source: E. coli C43, as part of the BcsB-BcsC fusion chain, co-purified with the Bcs complex
T1 sequence (looked up): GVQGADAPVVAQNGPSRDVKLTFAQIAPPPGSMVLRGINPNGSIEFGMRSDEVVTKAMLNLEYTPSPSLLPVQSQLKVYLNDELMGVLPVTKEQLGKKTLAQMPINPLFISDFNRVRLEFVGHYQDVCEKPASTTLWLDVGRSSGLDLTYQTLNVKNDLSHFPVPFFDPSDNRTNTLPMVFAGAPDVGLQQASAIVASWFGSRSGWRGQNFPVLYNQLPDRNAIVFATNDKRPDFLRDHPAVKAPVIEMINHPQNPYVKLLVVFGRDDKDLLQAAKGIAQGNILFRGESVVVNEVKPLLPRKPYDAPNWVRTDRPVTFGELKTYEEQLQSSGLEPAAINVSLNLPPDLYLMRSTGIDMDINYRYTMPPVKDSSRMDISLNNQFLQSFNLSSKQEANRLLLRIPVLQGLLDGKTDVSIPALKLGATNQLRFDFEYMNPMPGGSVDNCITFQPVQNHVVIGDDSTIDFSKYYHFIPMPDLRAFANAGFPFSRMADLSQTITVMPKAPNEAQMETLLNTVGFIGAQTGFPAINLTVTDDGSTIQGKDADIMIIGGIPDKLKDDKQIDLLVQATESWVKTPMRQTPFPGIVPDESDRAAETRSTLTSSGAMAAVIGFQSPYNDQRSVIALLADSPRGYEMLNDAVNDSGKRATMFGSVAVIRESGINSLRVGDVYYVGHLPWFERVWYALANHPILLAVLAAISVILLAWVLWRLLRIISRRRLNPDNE

[5] = target: the molecule itself; test: as above

B1: periplasmic domain of Escherichia coli BcsC (TPR#1–18; residues 24–709) (domain or fragment, UniProt P37650 24-709, looked up)
chain: APTAQQQLLEQVRLGEATHREDLVQQSLYRLELIDPNNPDVVAARFRSLLRQGDIDGAQKQLDRLSQLAPSSNAYKSSRTTMLLSTPDGRQALQQARLQATTGHAEEAVASYNKLFNGAPPEGDIAVEYWSTVAKIPARRGEAINQLKRINADAPGNTGLQNNLALLLFSSDRRDEGFAVLEQMAKSNAGREGASKIWYGQIKDMPVSDASVSALKKYLSIFSDGDSVAAAQSQLAEQQKQLADPAFRARAQGLAAVDSGMAGKAIPELQQAVRANPKDSEALGALGQAYSQKGDRANAVANLEKALALDPHSSNNDKWNSLLKVNRYWLAIQQGDAALKANNPDRAERLFQQARNVDNTDSYAVLGLGDVAMARKDYPAAERYYQQTLRMDSGNTNAVRGLANIYRQQSPEKAEAFIASLSASQRRSIDDIERSLQNDRLAQQAEALENQGKWAQAAALQRQRLALDPGSVWITYRLSQDLWQAGQRSQADTLMRNLAQQKSNDPEQVYAYGLYLSGHDQDRAALAHINSLPRAQWNSNIQELVNRLQSDQVLETANRLRESGKEAEAEAMLRQQPPSTRIDLTLADWAQQRRDYTAARAAYQNVLTREPANADAILGLTEVDIAAGDKAAARSQLAKLPATDNASLNTQRRVALAQAQLGDTAAAQRTFNKLIPQAKSQPPSME
notes: BcsC periplasmic domain, TPR#1-18, residues 24-709, cloned into pET20b; also called BcsC's periplasmic domain; N-terminal 18 TPRs of BcsC; source: E. coli Rosetta 2, periplasmic extract, purified (Ni-NTA, SEC)
B1: binds (Escherichia coli BcsB).

B2: Escherichia coli pEtN transferase BcsG, FLAG-tagged (enzyme, UniProt P37659 1-559, looked up)
chain: MTQFTQNTAMPSSLWQYWRGLSGWNFYFLVKFGLLWAGYLNFHPLLNLVFAAFLLMPLPRYSLHRLRHWIALPIGFALFWHDTWLPGPESIMSQGSQVAGFSTDYLIDLVTRFINWQMIGAIFVLLVAWLFLSQWIRITVFVVAILLWLNVLTLAGPSFSLWPAGQPTTTVTTTGGNAAATVAATGGAPVVGDMPAQTAPPTTANLNAWLNNFYNAEAKRKSTFPSSLPADAQPFELLVINICSLSWSDIEAAGLMSHPLWSHFDIEFKNFNSATSYSGPAAIRLLRASCGQTSHTNLYQPANNDCYLFDNLSKLGFTQHLMMGHNGQFGGFLKEVRENGGMQSELMDQTNLPVILLGFDGSPVYDDTAVLNRWLDVTEKDKNSRSATFYNTLPLHDGNHYPGVSKTADYKARAQKFFDELDAFFTELEKSGRKVMVVVVPEHGGALKGDRMQVSGLRDIPSPSITDVPVGVKFFGMKAPHQGAPIVIEQPSSFLAISDLVVRVLDGKIFTEDNVDWKKLTSGLPQTAPVSENSNAVVIQYQDKPYVRLNGGDWVPYPQ
notes: present as the full-length enzyme in the analysed sample; End of the FLAG tag read from the plasmid's name (G-FLAG); also called Ec BcsG; source: E. coli C43 (DE3), co-expressed with the other Bcs components or with the BcsA chimera, Rs BcsB and BcsF; co-purified; not shown: FLAG, C-terminal, kept
With B2 the “stoichiometry N” value [1] was 3.

B3 was tested, and the “stoichiometry N” value [2] was 6.

B4: Escherichia coli cellulase BcsZ (enzyme)
chain: ACTWPAWEQFKKDYISQEGRVIDPSDARKITTSEGQSYGMFSALAANDRAAFDNILDWTQNNLAQGSLKERLPAWLWGKKENSKWEVLDSNSASDGDVWMAWSLLEAGRLWKEQRYTDIGSALLKRIAREEVVTVPGLGSMLLPGKVGFAEDNSWRFNPSYLPPTLAQYFTRFGAPWTTLRETNQRLLLETAPKGFSPDWVRYEKDKGWQLKAEKTLISSYDAIRVYMWVGMMPDSDPQKARMLNRFKPMATFTEKNGYPPEKVDVATGKAQGKGPVGFSAAMLPFLQNRDAQAVQRQRVADNFPGSDAYYNYVLTLFGQGWDQHRFRFSTKGELLPDWGQECANSH
notes: End of the His tag read from the plasmid's name; also called Ec BcsZ
With B4 the “stoichiometry N” value [3] was 4.

B5: Escherichia coli BcsC TPR#1–4 (residues 21–179), as it stands in the BcsB-BcsC fusion (domain or fragment, UniProt P37650 21-179, looked up)
chain: VEAAPTAQQQLLEQVRLGEATHREDLVQQSLYRLELIDPNNPDVVAARFRSLLRQGDIDGAQKQLDRLSQLAPSSNAYKSSRTTMLLSTPDGRQALQQARLQATTGHAEEAVASYNKLFNGAPPEGDIAVEYWSTVAKIPARRGEAINQLKRINADAPG
notes: N-terminal four TPRs of E. coli BcsC (TPR#1-4), residues 21-179; Joined on one chain with BcsB 55-779 through a GSGSGS linker (molecule m11); written apart for the BcsB-BcsC pair of the structure; also called BcsC's TPRs#1–4; BcsC N-terminal TPRs; source: E. coli C43, as part of the BcsB-BcsC fusion chain, co-purified with the Bcs complex; not shown: Strep-tag II, N-terminal, kept
B5: binds [4].

B6: BcsB-BcsC fusion: BcsC TPR#1–4 fused to the N-terminus of Escherichia coli BcsB (other)
chain: VEAAPTAQQQLLEQVRLGEATHREDLVQQSLYRLELIDPNNPDVVAARFRSLLRQGDIDGAQKQLDRLSQLAPSSNAYKSSRTTMLLSTPDGRQALQQARLQATTGHAEEAVASYNKLFNGAPPEGDIAVEYWSTVAKIPARRGEAINQLKRINADAPGGSGSGSGVQGADAPVVAQNGPSRDVKLTFAQIAPPPGSMVLRGINPNGSIEFGMRSDEVVTKAMLNLEYTPSPSLLPVQSQLKVYLNDELMGVLPVTKEQLGKKTLAQMPINPLFISDFNRVRLEFVGHYQDVCEKPASTTLWLDVGRSSGLDLTYQTLNVKNDLSHFPVPFFDPSDNRTNTLPMVFAGAPDVGLQQASAIVASWFGSRSGWRGQNFPVLYNQLPDRNAIVFATNDKRPDFLRDHPAVKAPVIEMINHPQNPYVKLLVVFGRDDKDLLQAAKGIAQGNILFRGESVVVNEVKPLLPRKPYDAPNWVRTDRPVTFGELKTYEEQLQSSGLEPAAINVSLNLPPDLYLMRSTGIDMDINYRYTMPPVKDSSRMDISLNNQFLQSFNLSSKQEANRLLLRIPVLQGLLDGKTDVSIPALKLGATNQLRFDFEYMNPMPGGSVDNCITFQPVQNHVVIGDDSTIDFSKYYHFIPMPDLRAFANAGFPFSRMADLSQTITVMPKAPNEAQMETLLNTVGFIGAQTGFPAINLTVTDDGSTIQGKDADIMIIGGIPDKLKDDKQIDLLVQATESWVKTPMRQTPFPGIVPDESDRAAETRSTLTSSGAMAAVIGFQSPYNDQRSVIALLADSPRGYEMLNDAVNDSGKRATMFGSVAVIRESGINSLRVGDVYYVGHLPWFERVWYALANHPILLAVLAAISVILLAWVLWRLLRIISRRRLNPDNE
notes: N-terminal four TPRs of E. coli BcsC (TPR#1-4), residues 21-179; linker; E. coli BcsB, residues 55-779; The best map came from a tetrameric BcsB assembly; a fully assembled complex was also seen; also called nSS-Strep-TPR(#1-4)-(GS)3-B; engineered BcsB-BcsC fusion; source: E. coli C43, co-expressed with all other Bcs components, co-purified (Ni-NTA, Strep-Tactin, SEC), in detergent; not shown: …
For B6, the “stoichiometry N” value [5] was 4.
